B1: GLUE-Cpep: helix-grafted GLUE PH domain displaying gp41 C-peptide on its C-terminal helix (grafted helix SEQ ID NO:3) (protein)
chain: MEYWHYVETTSSGQPLLREGEKDIAIDQSVGLYHGKSKILQRQRGRIFLTSQRIIYIDDAKPTQNSLGLELDDLAYVNYSSGFLTRSPALILFFKDPSSSTEFVQLSFRKSDGVWFSWATEIALYTILIHSLIEESQNQQEKNEQELL
B2: wtELMO: wild-type form of ELMO (Engulfment and Cell Motility) PTB domain, PDB 2VSZ (protein)
chain: PILELKEKIQPEILELIKQQRLNRLVEGTCFRKLNARRRQDKFWYCRLSPNHKVLHYGDLEESPQGEVPHDSLQDKLPVADIKAVVTGKDCPHMKEKGALKQNKEVLELAFSILYDSNCQLNFIAPDKHEYCIWTDGLNALLGK

Legend:
[1] = target: T1, 5-helix (Human immunodeficiency virus type 1 group M subtype B, UniProt P04578, C598G/DEL583-596/DEL601-623/N624G); conditions: untagged ligand, E. coli cell lysate, Ni-NTA
Description: Lysate Ni-NTA Pulldown Assay: GLUE-Cpep was cloned into MCS1 of pETDuet-1 using restriction enzymes NcoI and NotI. The 5 helix with a C-terminal His6× tag was cloned into MCS2 of pETDuet-1 using the restriction enzymes NdeI and KpnI. Completed constructs were transformed into BL21s (DE3). Cells containing the co-expressed pair were inoculated and induced as described previously. Cells were spun down and resuspended in lysis buffer (100 mM NaCl, 20 mM Tris pH 7.4, 10 mM (NH4)2SO4), lysed by sonication, and spun down to remove cell debris. Cleared lysate was incubated with 200 μL Ni-NTA agarose resin for 1 hour. Ni-NTA agarose was washed with 8 mL lysis buffer and with 10 mM imidazole. Proteins were eluted with 500 μL lysis buffer containing 400 mM imidazole.

[2] = system: HIV-1 IIIB virus; assay: In cellulo HIV-1 infection assay (CEM-GFP cells, flow cytometry); assay type: cell-based
Description: The ELMO grafts were tested as potential inhibitors of HIV-1 in cellulo. The validated assay uses a Lymphoblastoid CD4^+ T-cell line with stably integrated EGFP (CEM-GFP) under the control of the HIV-1 long terminal repeat (LTR) promoter. 293T cells are simultaneously transfected with HIV-1 IIIB virus. The infected cells and non-infected cells are mixed together along with the desired inhibitor. If infection succeeds the number of infected GFP^+ cells increases, which can be measured by flow cytometry (FIG. 18). The inhibition of each ELMO construct was determined in a dose depended manner and compared to C34 and T20 (FIG. 19).

[3] = Circular dichroism thermal denaturation at 222 nm; assay type: physicochemical; conditions: CD 222 nm, Tris buffer pH 7.4, 0 to 90 °C
Description: Circular Dichroism: Proteins were purified as described above. […] Wavelength data are the average of three scans from 250 nm to 200 nm in 1 nm steps at 25° C. Thermal denaturation experiments at 222 nm were run from 0 to 90° C. in two-degree steps at a two-degree/minute rate of increase with one-minute equilibration and data averaging at each temperature. Tm values were obtained from minima of the first derivative of θ versus 1/T plots.

[4] = target: T1, 5-helix; conditions: E. coli cell lysate, FLAG-tagged ligand, Ni-NTA plates
Description: ELISA: Separately, wt-GLUE, GLUE-Cpep, and the C-peptide were cloned into MCS1 of pETDuet-1 with FLAG tags using restriction enzymes NcoI and NotI. The 5-helix with a C-terminal His6× tag was cloned into MCS2 of pETDuet-1 using restriction enzymes NdeI and KpnI. Completed constructs were transformed into BL21s (DE3). Cells containing the co-expressed pair were inoculated and induced as described previously. Cells were spun down and resuspended in lysis buffer (20 mM Hepes pH 7.5, 100 mM NaCl), lysed by sonication, and spun down to remove cell debris. Cleared lysates were incubated on clear Ni-NTA coated plates for 1 hour at room temperature and washed 4× with 200 μL wash buffer (20 mM Hepes pH 7.5, 150 mM NaCl, 0.05% Tween-20, 0.01 mg/mL BSA). HRP-conjugated mouse anti-DDDDK antibody in LiCor Blocking Buffer was incubated for 1 hour at room temperature, followed by 4×200 μL washes. Colorimetry was developed using TMB-One substrate and absorbance was measured at 655 nm on a SynergyMx Microplate Reader.

[5] = target: T1, 5-helix; assay type: cell-based, HIV; design: N-terminal superpositive GFP tethered to the 5-helix was cloned into pETDuet-1; His6 (N); His6 (C); expressed in transfected cells; host or cells: E. coli BL21 (DE3), pETDuet-1; conditions: E. coli co-expressing N-spGFP-5-helix and C-spGFP fusion, flow cytometry
Description: Split-Superpositive GFP (split-spGFP) Reassembly Assay: Split-spGFP reassembly experiments were performed as previously described (Chapman, A. M.; 3 McNaughton, B. R. Molecular BioSystems 2012, 8, 2036). […] The completed construct was transformed into BL21s (DE3) and the cells were made electrocompetent via standard protocols. Separately, GLUE-Cpep and C-peptide tethered to the C-terminal fragment of superpositive GFP were independently cloned into pBAD using restriction enzymes NcoI and BsrGI. Constructs were electroporated into electrocompetent BL21s (DE3) containing the N-terminal superpositive GFP plasmid, pulsing at 1.8 kV in a 1 mm cuvette. Cells were allowed to recover at 37° C. for 1 hour, and then plated onto agar plates containing carbenicillin and kanamycin. Individual colonies were picked and passaged once, followed by induction at 37° C. with 1 mM IPTG and 0.2% arabinosewhen cultures reached an OD600 of 0.5. After 6 hours, cells were spun down and resuspended in 5 mL PBS. GFP fluorescence was measured by MoFlo Flow Cytometer.

[6] = target: T1, 5-helix; conditions: 50 nM, 25% human serum, 37 °C, 4 or 12 h
Description: Colorimetry was developed using TMB-One substrate and absorbance was measured at 655 nm on a SynergyMx Microplate Reader.

[7] = room temperature (~25 °C)
Description: Protein Purification: Genes were cloned into pETDuet-1 using restriction enzymes BamHI and PacI, downstream of a His6× tag and transformed into BL21s (DE3). Cells were grown in 2.5 L LB cultures containing 50 μg/mL carbenicillin at 37° C. to OD600=0.5 and induced with 1 mM IPTG at 25° C. overnight. Cells were then collected by centrifugation, resuspended in Tris buffer (20 mM Tris pH 7.4, 100 mM NaCl, 10 mM (NH4)2SO4) and stored at −20° C. Frozen pellets were thawed and sonicated with 1 second pulses for 2 minutes. The lysate was cleared by centrifugation (15,000 rpm 30 min.) and the supernatant was mixed with 1 mL of Ni-NTA agarose resin for 1 hour at 4° C. The resin was collected by centrifugation (4,750 rpm, 10 min.). The resin was sequentially washed with 50 mL of buffer containing 20 mM imidazole, 10 mL buffer containing 50 mM imidazole, and 5 mL buffer containing 100 mM imidazole. […] The proteins were dialyzed against Tris buffer and analyzed for purity by SDS-PAGE shown below. Purified protein concentrations were quantified using Beer's Law at an absorbance of 280 nm, following standard practice (Grimsley, G. R.; Pace, C. N. Current Protocols in Protein Science (2003), 3.1.1-3.1.9).
All proteins were produced recombinantly in a pET vector with a His6× tag. […] Their expression was quantified in mg/L and compared to wtGLUE (FIG. 12A). […]

Row | Molecule | co-purification with His6-tagged 5-helix [1] | inhibition of HIV-1 infection at 250 nM ([2]; 250 nM) | Tm [3] | ELISA signal / affinity for 5-helix [4] | interaction-dependent GFP reassembly fluorescence [5] | ELISA signal for 5-helix after pre-incubation with human serum [6] | solubility and folding in aqueous solution [7] | inhibition of HIV-1 infection ([2]; dose dependent, compared to C34 and T20)
1 | C26-ELMO: shortened C-peptide grafted onto N-terminal helix of ELMO (SEQ ID NO:7) (WMEWDREINNYTSLIHSLIEESQNQQKQQRLNRLVE) | could also be purified alongside 5-Helix-His6× | some inhibition of infection | – | – | – | – | – | –
2 | B1 | excellent selectivity | – | ~79 °C | slightly better affinity than the native C-peptide | highly fluorescent | remains functional | soluble and well-folded | –
3 | B2 | – | – | – | strong ELISA signal | – | – | – | no inhibitory effect

— patent US10927157B2, “Helix-grafted proteins as inhibitors of disease-relevant protein-protein interactions” (priority 2014, dated 2021)
